# Measurements reported in publication PMC11944484, “Metronidazole Activation by a Deeply Entangled Dimeric Malic Enzyme in Entamoeba histolytica” (Pathogens, 2025).
# Columns and labels:
# [1] = biological target: T1, EhME (Entamoeba histolytica malic enzyme; rEhME) (Entamoeba histolytica, UniProt Q9NH04); test: NADPH formation at […] nm, inhibition kinetics; format: biochemical
# T1 construct: gene CL6EHI_044970; full-length ORF in pQE30, N-terminal His6 tag (cleavage not mentioned), expressed in E. coli M15; Ni-NTA and Superdex 200; apparent 53 kDa; entangled homodimer with composite active site
# T1 sequence (Q9NH04 1-487): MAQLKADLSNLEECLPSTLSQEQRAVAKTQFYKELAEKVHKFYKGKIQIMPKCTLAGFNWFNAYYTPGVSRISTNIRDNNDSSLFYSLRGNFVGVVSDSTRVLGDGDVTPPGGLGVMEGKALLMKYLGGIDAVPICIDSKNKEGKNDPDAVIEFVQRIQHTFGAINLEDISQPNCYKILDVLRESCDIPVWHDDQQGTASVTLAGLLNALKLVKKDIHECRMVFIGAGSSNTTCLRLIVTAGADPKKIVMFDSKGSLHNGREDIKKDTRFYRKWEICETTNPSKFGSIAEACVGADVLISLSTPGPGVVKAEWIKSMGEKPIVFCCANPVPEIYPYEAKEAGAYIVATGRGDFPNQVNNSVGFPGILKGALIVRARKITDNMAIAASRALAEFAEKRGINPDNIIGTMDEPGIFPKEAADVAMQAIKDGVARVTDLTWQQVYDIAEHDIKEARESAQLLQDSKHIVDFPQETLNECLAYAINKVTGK
# [2] = biological target: the molecule itself; test: SEC; gel filtration chromatography of purified EhME; conditions of the analysis not told apart from the purification step (Superdex 200, 10 mM Tris, 150 mM NaCl, 10 mM DTT, pH 8.0)
# [3] = substrate: O=C(O)C[C@H](O)C(=O)O; test: purified protein; format: biochemical, Entamoeba histolytica; conditions: NADP+ at saturation, L-malate varied 5-15 mM, 5 mM MnCl2, 50 mM Tris-Cl pH 7.4, 30 °C, apparent Km
# [4] = substrate: NC(=O)c1ccc[n+]([C@@H]2O[C@H](COP(=O)(O)OP(=O)(O)OC[C@H]3O[C@@H](n4cnc5c(N)ncnc54)[C@H](OP(=O)(O)O)[C@@H]3O)[C@@H](O)[C@H]2O)c1; test: purified protein; format: biochemical, Entamoeba histolytica; conditions: L-malate at saturation, NADP+ varied 0.1-0.5 mM, 5 mM MnCl2, 50 mM Tris-Cl pH 7.4, 30 °C, apparent Km, varied: cofactor
Molecule,Ki [1] [µM],stoichiometry N [2],Km [3] [µM],kcat [3] [s⁻¹],Km [4] [µM],kcat [4] [s⁻¹]
Nc1ncnc2c1ncn2[C@@H]1O[C@H](COP(=O)(O)OP(=O)(O)OP(=O)(O)O)[C@@H](O)[C@H]1O [ATP],650,–,–,–,–,–
"Entamoeba histolytica malic enzyme (enzyme, UniProt Q9NH04 1-487, looked up, Entamoeba histolytica malic enzyme, gene PCR-amplified from genomic DNA with primers from the ATG start codon to the stop codon; cloned into pQE30; Homodimer with two interlocked (knotted) protomers; also called EhME; rEhME; source: E. coli M15 (pQE30), purified (Ni-NTA, Superdex 200 gel exclusion chromatography)) MAQLKADLSNLEECLPSTLSQEQRAVAKTQFYKELAEKVHKFYKGKIQIMPKCTLAGFNWFNAYYTPGVSRISTNIRDNNDSSLFYSLRGNFVGVVSDSTRVLGDGDVTPPGGLGVMEGKALLMKYLGGIDAVPICIDSKNKEGKNDPDAVIEFVQRIQHTFGAINLEDISQPNCYKILDVLRESCDIPVWHDDQQGTASVTLAGLLNALKLVKKDIHECRMVFIGAGSSNTTCLRLIVTAGADPKKIVMFDSKGSLHNGREDIKKDTRFYRKWEICETTNPSKFGSIAEACVGADVLISLSTPGPGVVKAEWIKSMGEKPIVFCCANPVPEIYPYEAKEAGAYIVATGRGDFPNQVNNSVGFPGILKGALIVRARKITDNMAIAASRALAEFAEKRGINPDNIIGTMDEPGIFPKEAADVAMQAIKDGVARVTDLTWQQVYDIAEHDIKEARESAQLLQDSKHIVDFPQETLNECLAYAINKVTGK",–,2,570 ± 80,41.7,46.67 ± 6.0,14.57
